The record followed here is article PMC12990809.

What all share (experiment): pulldown
Conditions in all cases: 20 nM protein, 1.5 uM RNA pool; 20 mM HEPES pH 7.8, 70 mM KCl, 10 mM NaCl, 10% glycerol, 2 mM DTT, 0.1 ug/uL BSA; 30 min, 4 C

The target of data set [1] is T1, Tb927.7.2140 V21F (Trypanosoma brucei) (UniProt D6XKD1).
T1 sequence: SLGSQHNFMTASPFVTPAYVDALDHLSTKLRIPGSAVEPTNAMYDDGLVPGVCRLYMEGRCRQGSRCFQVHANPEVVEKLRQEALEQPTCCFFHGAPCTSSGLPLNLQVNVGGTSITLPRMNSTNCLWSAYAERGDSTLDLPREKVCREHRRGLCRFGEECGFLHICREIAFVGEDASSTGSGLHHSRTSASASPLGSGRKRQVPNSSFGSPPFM

For data set [2], the target named is T2, PK21303.1 (Cannabis sativa) (UniProt A0A803NH45).
T2 sequence: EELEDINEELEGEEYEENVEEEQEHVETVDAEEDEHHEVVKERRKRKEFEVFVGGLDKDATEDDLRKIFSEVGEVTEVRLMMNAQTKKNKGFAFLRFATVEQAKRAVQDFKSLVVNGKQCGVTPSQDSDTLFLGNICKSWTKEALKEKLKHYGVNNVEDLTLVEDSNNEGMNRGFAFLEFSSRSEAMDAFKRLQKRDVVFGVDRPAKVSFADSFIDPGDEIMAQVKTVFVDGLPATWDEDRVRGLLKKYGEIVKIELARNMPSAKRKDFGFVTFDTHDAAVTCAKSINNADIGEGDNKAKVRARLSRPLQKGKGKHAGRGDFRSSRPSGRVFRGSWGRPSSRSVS

Data set [3] deals with khdrbs1b (Tetraodon nigroviridis) (UniProt H3D6B2).
khdrbs1b (Tetraodon nigroviridis), sequence (H3D6B2 entry or part of it): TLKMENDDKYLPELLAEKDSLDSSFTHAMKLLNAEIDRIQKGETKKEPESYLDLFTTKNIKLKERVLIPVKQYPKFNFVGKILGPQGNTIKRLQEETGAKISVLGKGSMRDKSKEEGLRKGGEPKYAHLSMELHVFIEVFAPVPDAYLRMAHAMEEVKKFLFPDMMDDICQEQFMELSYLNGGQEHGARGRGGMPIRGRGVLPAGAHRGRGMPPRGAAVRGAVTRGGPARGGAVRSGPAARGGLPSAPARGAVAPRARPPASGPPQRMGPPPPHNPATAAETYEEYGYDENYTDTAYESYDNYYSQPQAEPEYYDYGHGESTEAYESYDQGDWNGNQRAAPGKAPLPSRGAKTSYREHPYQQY
Data set [4] addresses T3, T07F10.3 (Caenorhabditis elegans) (UniProt Q22318).
T3 sequence: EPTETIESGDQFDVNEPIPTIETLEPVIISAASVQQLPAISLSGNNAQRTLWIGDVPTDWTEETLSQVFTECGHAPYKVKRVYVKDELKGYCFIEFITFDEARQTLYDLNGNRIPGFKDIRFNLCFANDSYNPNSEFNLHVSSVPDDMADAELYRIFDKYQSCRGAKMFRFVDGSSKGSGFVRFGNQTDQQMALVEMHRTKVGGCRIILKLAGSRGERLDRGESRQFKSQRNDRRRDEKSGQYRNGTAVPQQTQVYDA

Another data set has as its target T4, FUBP1 (Homo sapiens) (UniProt A0ACI8RIE7).
T4 sequence: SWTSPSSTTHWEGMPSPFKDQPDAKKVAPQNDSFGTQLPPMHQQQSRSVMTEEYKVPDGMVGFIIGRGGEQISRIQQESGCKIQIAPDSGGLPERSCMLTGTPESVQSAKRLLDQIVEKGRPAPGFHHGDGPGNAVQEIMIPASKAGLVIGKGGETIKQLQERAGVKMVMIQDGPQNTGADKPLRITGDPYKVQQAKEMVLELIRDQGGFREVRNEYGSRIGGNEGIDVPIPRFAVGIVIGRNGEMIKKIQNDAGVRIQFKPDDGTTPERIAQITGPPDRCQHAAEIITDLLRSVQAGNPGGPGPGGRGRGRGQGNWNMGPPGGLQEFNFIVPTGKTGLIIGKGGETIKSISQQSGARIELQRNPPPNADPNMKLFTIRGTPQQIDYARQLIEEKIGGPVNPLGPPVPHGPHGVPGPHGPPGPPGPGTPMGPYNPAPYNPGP

Data set [5] deals with T5, ENSXETG00000023721 (Xenopus tropicalis) (UniProt A0A803KLF2).
T5 sequence: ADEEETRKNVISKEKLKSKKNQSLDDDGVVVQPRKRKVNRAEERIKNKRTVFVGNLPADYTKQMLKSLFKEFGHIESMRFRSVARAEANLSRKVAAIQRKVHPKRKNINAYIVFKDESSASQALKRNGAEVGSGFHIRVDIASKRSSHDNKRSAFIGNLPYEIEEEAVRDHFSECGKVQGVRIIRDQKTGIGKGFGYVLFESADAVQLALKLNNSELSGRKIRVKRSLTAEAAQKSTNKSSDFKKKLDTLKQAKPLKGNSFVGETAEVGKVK

For data set [6], the target named is T6, NCU04254 (Neurospora crassa) (UniProt Q7S7T0).
T6 sequence: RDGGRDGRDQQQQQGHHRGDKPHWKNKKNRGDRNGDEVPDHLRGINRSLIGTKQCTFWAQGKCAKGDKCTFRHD

For data set [7], the target named is T7, SCHCODRAFT_104251 ins42_DR;V186I (Schizophyllum commune) (UniProt A0ACF2EEN8).
T7 sequence: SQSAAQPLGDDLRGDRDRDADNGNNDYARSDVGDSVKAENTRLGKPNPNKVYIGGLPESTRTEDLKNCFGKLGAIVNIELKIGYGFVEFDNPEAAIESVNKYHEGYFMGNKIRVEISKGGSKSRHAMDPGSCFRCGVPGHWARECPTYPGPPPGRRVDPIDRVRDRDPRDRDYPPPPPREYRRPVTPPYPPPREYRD

For data set [8], the target named is T8, CBG00421 (Caenorhabditis briggsae) (UniProt A8WN19).
T8 sequence: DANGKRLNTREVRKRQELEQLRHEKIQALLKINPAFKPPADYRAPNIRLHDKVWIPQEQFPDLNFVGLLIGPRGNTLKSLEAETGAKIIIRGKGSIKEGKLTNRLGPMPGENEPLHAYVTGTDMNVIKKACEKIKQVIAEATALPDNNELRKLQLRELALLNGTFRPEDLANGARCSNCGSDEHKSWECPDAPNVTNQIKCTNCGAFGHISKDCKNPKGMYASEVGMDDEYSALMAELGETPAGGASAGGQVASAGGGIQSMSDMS

Turning to AAAACG [RNAcompete motif RNCMPT00834], the binding signal (z-score (mean of top ten 7-mers)) in data set [1] is 26.

The substance AGAAGGA [RNAcompete motif RNCMPT00831] gave a binding signal (z-score (mean of top ten 7-mers)) in data set [2] of 6.57.

AUAAAAG [RNAcompete motif RNCMPT01673] gave a binding signal (z-score (mean of top ten 7-mers)) in [3] of 8.63.

In [4], AUAAUAA [RNAcompete motif RNCMPT00821] gave a binding signal (z-score (mean of top ten 7-mers)) of 8.08.

AUGUAU [RNAcompete motif RNCMPT00822] returned a binding signal (z-score (mean of top ten 7-mers)) with FUBP1 (Homo sapiens) of 7.78.

In data set [5], GAACG [RNAcompete motif RNCMPT00828] had a binding signal (z-score (mean of top ten 7-mers)) of 10.8.

In data set [6], GAAUGG [RNAcompete motif RNCMPT00835] had a binding signal (z-score (mean of top ten 7-mers)) of 8.35.

In the case of GACUA [RNAcompete motif RNCMPT00866], in data set [7], the binding signal (z-score (mean of top ten 7-mers)) is 6.58.

As for GANUAAU [RNAcompete motif RNCMPT00840], in [8], the binding signal (z-score (mean of top ten 7-mers)) worked out at 14.5.
